According to article PMC5065005 (The FEBS journal, 2016):

Target: the molecule itself
Experiment: 1D 1H NMR spectra at increasing protein concentration

B1: human FBxo3 ApaG domain, residues 278–407 (domain or fragment, UniProt Q9UK99 278-407, looked up)
chain: VATTGDITVSVSTSFLPELSSVHPPHYFFTYRIRIEMSKDALPEKACQLDSRYWRITNAKGDVEEVQGPGVVGEFPIISPGRVYEYTSCTTFSTTSGYMEGYYTFHFLYFKDKIFNVAIPRFHMACPTFR
binding result: binds
